Test results from EP4265717A1.

Key:
[1] = biological target: mobilized colistin resistance (MCR)-2 protein; assay: indirect ELISA, plate coated with 0.2 ug/mL MCR-2 protein, purified antibody in doubling dilutions; conditions: scale: reciprocal dilution
[2] = biological target: mobilized colistin resistance (MCR)-1 protein; assay: indirect ELISA, plate coated with 0.2 ug/mL MCR-1 protein, purified antibody in doubling dilutions; conditions: scale: reciprocal dilution

Binder | titer [1] | titer [2]
anti-MCR-1/MCR-2 protein mouse mAb 1IB10 (antibody, V domains shown) VH: VKLQQSGPELVKPGASVKMSCRASGYTFTSYVMHWVKQKPGQGLEWIGYFNPYNDGANYNEKFKGKATLSSDKSSGTAYMDLSSLTSEDSAVYYCARGPYGNYAMDYWGQGTSVTVSS VL: DVLMTQTPLSLPVSLGDQASISCRSSQNIVCSYGNPCLEWYLQKPGQSPKLLIYKVSNRFSGVPDRFSGSGSGTDFTLKISRVEAEDLGVYYCFQSSHVPWTFGGGTELEIKR | > 1.28e+06 | > 1.28e+06
anti-MCR-1/MCR-2 protein mouse mAb 2DG5 (antibody, V domains shown) VH: VKLQESGPGLVKPSQSLSLTCTVTGYSITSDYAWNWIRQFPGNKLEWMGQISDSAVTTYNPSLKSRISINRDTSKNQFFLQLNSVTPEDTATYYCARRNFYGYNFFDYWGRGTSLTVSS VL: DIQMTQTTSSLSASLGDRVTINCRASQDINNYLNWYQQKPDGTVKLLIYYTSRLHSGVPSRFSGSGSRTDYSLTISNLEREDIATYFCQQGKTIHPWTFGGGTKLDIKR | > 1.28e+06 | > 1.28e+06
